Molecular target: T1, PEBP1 (UniProt P70296 1-187)
T1 sequence (looked up): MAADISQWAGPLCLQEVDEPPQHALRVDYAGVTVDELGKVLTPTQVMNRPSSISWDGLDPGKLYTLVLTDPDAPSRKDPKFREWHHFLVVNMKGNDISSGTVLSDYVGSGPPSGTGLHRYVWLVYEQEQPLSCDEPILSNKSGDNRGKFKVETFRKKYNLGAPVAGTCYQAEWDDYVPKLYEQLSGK
Assay: ITC

dH: -329 kcal/mol | stoichiometry N: 0.753 ± 0.0359
B1: dendritic cell factor 1 (DCF1) (natural protein)
chain: EAFDSVLGDTASCHRACQLTYPLHTYPKEEELYACQRGCRLFSICQFVDDGLDLNRTKLECESACTEAYSQPDEQYACHLGCQDQLPFAELRQEQLMSLMPRMHLLFPLTLVRSFWSDMMDSAQSFITSSWTFYLQADDGKIVIFQSKPEIQYAPQLEQEPTNLRESSLSKMSYLQMRNSQAHRNYLEEEESDGFLRCLSLNSGWILTTTLVLSVMVLLWICCAAVATAVEQYVPPEKLSIYGDLEFMNEQKLSRYPAPSLVIVRSQTEEHEEAGPLPTKVNLAHSEI

Reference: doi:10.1101/2020.02.20.958934 (bioRxiv, 2020)
